Data as given in the supplement of paper PMC12855868.

B1: library; numbered along this chain (parent)
chain: MAAAGGARLLRAASAVLGGPAGRWLHHAGSRAGSSGLLRNRGPGGSAEASRSLSVSARARSSSEDKITVHFINRDGETLTTKGKVGDSLLDVVVENNLDIDGFGACEGTLACSTCHLIFEDHIYEKLDAITDEENDMLDLAYGLTDRSRLGCQICLTKSMDNMTVRVPETVADARQSIDVGKTS

Variants of: B1
Assay: scaled log2 fold change in cell abundance, elesclomol vs control (0 = silent mean, 1 = nonsense mean) (scaled log2 ratio); higher = higher viability under elesclomol (loss of FDX1 cuproptosis function)
Conditions: glucose 10 mM
[1] = with ABC1 FDX1 KO, elesclomol 5 nM, 14 days
[2] = with HEK293T FDX1 KO, elesclomol 40 nM, 11 days
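Further: variant abundance is its share of total variant reads in each endpoint sample, from next-generation sequencing of the integrated ORF PCR-amplified out of genomic DNA.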

Variant	scaled log2 fold change [1]	scaled log2 fold change [2]
S113M	0.304	
S113N	-0.0206	0.213
S113F	0.0249	0.717
S113V	0.242	-0.434
S113G	0.021	0.00491
S113I	0.189	-0.397
S113L	0.0304	0.215
S113Q	-0.139	-0.137
S113Y	0.038	0.0184
S113P	1.03	1.16
S113K	0.372	0.195
S113E	0.672	-0.214
S113T	0.186	0.232
S113H	0.269	-0.884
S113D	0.394	0.644
S113W	0.446	0.762
S113C	-0.028	0.699
S113R	0.116	0.165
S113A	0.165	-0.251
H122I	0.215	1.13
H122D	-0.343	
H122Q	-0.0669	0.352
H122W	0.634	-0.608
H122N	0.564	0.129

Variant	scaled log2 fold change [1]	scaled log2 fold change [2]
H122F	-0.949	
H122K	-0.152	-0.221
H122T	0.191	0.139
H122S	-0.554	
H122Y	-0.259	
H122V	0.297	-0.437
H122P	-0.0781	-0.564
H122E	0.137	
H122G	-1.06	
H122C	-0.812	
H122M	0.0412	0.368
H122L	-0.634	
H122R	-0.313	0.00681
T114V	0.906	0.208
T114G	-1.41	-0.22
T114E	0.811	1.09
T114A	-0.0113	0.0983
T114R	0.517	0.411
T114C	0.158	0.117
T114D	0.795	0.798
T114L	0.463	0.0445
T114W	1.03	0.814
T114Q	-0.112	0.0599
T114N	0.0748	1.03

Variant	scaled log2 fold change [1]	scaled log2 fold change [2]
T114Y	0.838	0.412
T114K	0.766	0.199
T114F	0.685	0.235
T114H	-0.00732	0.334
T114M	0.114	0.455
T114P	1.01	0.956
T114I	1.02	1.01
T114S	-0.416	0.997
C112W	1.17	0.573
C112V	1.21	1.04
C112Y	1.09	1.3
C112T	1.16	0.679
C112R	1.08	1.29
C112S	0.988	0.991
L117S	0.36	-1.36
L117I	-0.11	-0.196
L117R	1.14	0.855
L117N	1.04	0.559
L117E	1.05	0.745
L117K	1.07	1.03
L117C	0.0758	0.451
L117W	1.03	0.891
L117F	0.176	0.206
L117M	0.167	-0.247

Variant	scaled log2 fold change [1]	scaled log2 fold change [2]
L117G	0.483	0.224
L117D	1.19	0.855
L117T	0.178	0.185
L117P	1.02	1.03
L117V	0.152	0.867
L117H	1.03	1.35
L117Q	1.05	0.896
L117A	0.00712	0.115
L117Y	1	1.02
D121H	-0.394	-0.25
D121R	-0.0191	1.32
D121M	-0.556	1.79
D121C	-0.164	-0.257
D121E	0.304	-0.162
D121N	-0.0427	
D121I	0.217	
D121F	0.353	
D121V	0.222	0.458
D121G	0.178	-0.427
D121P	-0.198	
D121Y	-0.243	0.698
D121Q	0.169	0.0204
D121T	-0.0111	
D121A	-0.0978	0.0802

Variant	scaled log2 fold change [1]	scaled log2 fold change [2]
D121S	-0.507	
D121L	-0.202	-0.00537
D121W	0.324	-0.123
E125A	-0.503	-0.173
E125F	-0.241	0.00284
E125C	-0.817	0.0813
E125G	-0.304	-0.096
E125D	0.426	0.469
Y124I	0.367	0.0274
Y124C	0.198	-0.0461
Y124V	-0.329	-0.724
Y124P	0.511	0.253
Y124G	-0.0904	0.69
Y124A	-0.0589	
Y124L	0.252	0.75
Y124H	0.148	1.04
Y124Q	0.286	-0.703
Y124F	-0.497	-0.225
Y124R	0.234	-0.258
Y124D	0.088	0.872
Y124N	0.36	1.01
Y124W	-0.403	-0.22
Y124S	0.413	0.62
Y124M	-0.133	-0.153

Variant	scaled log2 fold change [1]	scaled log2 fold change [2]
Y124K	0.0432	-0.66
Y124E	0.16	0.747
Y124T	0.399	-0.214
C115K	1.02	0.763
C115Q	0.93	1.07
C115S	1.09	1.13
C115I	1.04	0.907
C115E	1.27	0.99
C115G	1.06	1.1
C115V	1.07	1.37
C115A	1.07	1.02
C115P	1.1	1.51
C115D	1.16	0.979
C115T	1.13	0.783
C115M	1.03	1.19
C115N	0.976	1.34
C115L	1.09	1.15
C115H	0.953	1.29
C115Y	1.1	0.829
C115F	1	1.25
C115W	1.1	1.36
C115R	1.02	1.68
I123G	0.293	
I123L	-0.128	-0.00641

Variant	scaled log2 fold change [1]	scaled log2 fold change [2]
I123N	-0.867	-0.142
I123K	0.336	0.365
I123C	0.148	0.505
I123P	0.506	-0.674
I123W	-0.0593	-0.208
I123R	-0.34	0.123
I123H	0.292	-0.438
I123A	-0.0959	-0.0656
I123Q	-0.0633	-0.755
I123E	0.111	-0.217
I123M	0.264	0.00397
I123F	-0.346	0.312
I123D	0.248	0.132
I123S	0.133	0.206
I123Y	-0.0557	-0.336
I123T	0.223	0.679
I123V	-0.0405	
I118K	0.00843	0.202
I118Q	0.0897	0.252
I118R	-0.527	-0.461
I118P	1.16	0.991
I118T	-0.289	0.934
I118C	-0.313	-0.183
I118V	-0.103	-0.548

Variant	scaled log2 fold change [1]	scaled log2 fold change [2]
I118D	0.0488	0.0453
I118S	0.159	-0.594
I118N	0.286	-0.696
I118L	0.0425	0.108
I118A	0.0431	-0.147
I118H	0.249	0.918
I118W	0.135	0.474
I118M	0.0783	0.694
I118E	-0.0205	-0.0505
I118G	0.403	-0.108
I118F	-0.0055	-0.412
I118Y	0.0377	-0.427
E120K	0.0347	0.542
E120R	0.278	-0.473
E120A	0.194	-0.0676
E120T	0.0538	-0.0827
E120I	-0.276	0.524
E120M	-0.223	0.0763
E120Q	-0.192	0.816
E120H	-0.0176	-0.794
E120V	0.256	-0.849
E120D	0.203	0.978
E120G	0.367	-0.0815
E120P	0.108	0.193

Variant	scaled log2 fold change [1]	scaled log2 fold change [2]
E120W	0.298	-0.149
E120F	0.141	-0.0751
E120N	0.109	0.835
E120C	0.227	-0.059
E120L	0.202	0.102
E120S	0.0771	-1.62
E120Y	0.267	-0.449
F119K	1.05	1.21
F119S	1.07	0.993
F119E	1.04	1.21
F119A	0.901	0.518
F119G	1.05	0.397
F119T	0.311	0.547
F119P	0.974	0.628
F119W	0.0722	-0.0842
F119Y	0.389	0.17
F119R	1.09	0.953
F119M	0.178	0.132
F119V	-0.0745	1.48
F119I	0.0519	-0.0254
F119H	0.658	-0.0181
F119N	0.967	0.538
F119D	1.06	1.02
F119Q	0.852	0.755

Variant	scaled log2 fold change [1]	scaled log2 fold change [2]
F119L	0.0116	
F119C	0.133	0.831
H116K	0.464	-0.0313
H116W	-0.0982	0.125
H116E	-0.124	0.106
H116R	-0.042	0.647
H116P	0.152	0.891
H116N	-0.0564	-0.554
H116S	-0.0363	0.435
H116F	0.69	0.87
H116Y	0.484	1.02
H116C	0.0577	0.973
H116A	0.129	0.404
H116M	-1.26	0.245
H116V	0.0823	-0.296
H116T	0.317	-0.824
H116I	-1.23	0.162
H116D	0.16	-0.115
H116G	0.0557	-0.405
H116Q	-0.185	0.198
H116L	-0.55	-0.291
